# Experimental data as given in US20060030020A1.
# B1: λBPA phage particles grown on MC8 (su+), displaying the BPA (Bauhinia purpurea lectin) multimer (pV′-BPA fusion protein assembled with BPA monomers) (protein, part only; not given: amber residue and junction residues, part only)
# chain, part: MPVPNPTMPVKGAGTTLWVYKGSGDPYANPLSDVDWSRLAKVKDLTPGELTAESYDDSYLDDEDADWTATGQGQKSAGDTSFTLAWMPGEQGQQALLAWFNEGDTRAYKIRFPNGTVDVFRGWVSSIGKAVTAKEVITRTVKVTNVGRPSMAEDRSTVTAATGMTVTPASTSVVKGSWPVRPTPTPTTPTPTPTPTPTPTPTVGPIVTQETATSSTLTGFTFPNFWSNTQENGTEIIFLGNATYTPGALRLTRIGEDGIPLKSNAGQASYSRPVFLWDSTGHVASFYTSFSFIVRSIDVPHITADGFAFFLAPVDSSVKDYGGCLGLFRYKTATDPSKNQVVAVEFDTWPNTEWSDLRYPHIGINVNSTVSVATTRWDNDDAYVTKSTAHITYDATSKIITVLLTYDNGRHYQLSHVVDLPKILPERVRIGFSGGTGFNETQYILSWSFTSTLNSTKISALTQKLRSSASYSSM
# chain: TSSTLTGFTFPNFWSNTQENGTEIIFLGNATYTPGALRLTRIGEDGIPLKSNAGQASYSRPVFLWDSTGHVASFYTSFSFIVRSIDVPHITADGFAFFLAPVDSSVKDYGGCLGLFRYKTATDPSKNQVVAVEFDTWPNTEWSDLRYPHIGINVNSTVSVATTRWDNDDAYVTKSTAHITYDATSKIITVLLTYDNGRHYQLSHVVDLPKILPERVRIGFSGGTGFNETQYILSWSFTSTLNSTKISALTQKLRSSASYSSM
# B2: λV′sac phage particles grown on MC8 (su+), reference phage (protein)
# chain: MPVPNPTMPVKGAGTTLWVYKGSGDPYANPLSDVDWSRLAKVKDLTPGELTAESYDDSYLDDEDADWTATGQGQKSAGDTSFTLAWMPGEQGQQALLAWFNEGDTRAYKIRFPNGTVDVFRGWVSSIGKAVTAKEVITRTVKVTNVGRPSMAEDRSTVTAATGMTVTPASTSVVKG
# Experiments:
# [1] = molecular target: mouse monoclonal anti-β-gal antibody (Promega, Madison, Wis.); experiment: affinity selection on wells coated with anti-β-gal antibody; input λβ-gal/λV′sac 10^4/10^7
# [2] = molecular target: mouse monoclonal anti-β-gal antibody (Promega, Madison, Wis.); experiment: affinity selection on wells coated with anti-β-gal antibody; input λβ-gal/λV′sac 10^4/10^10
# [3] = molecular target: mouse monoclonal anti-β-gal antibody (Promega, Madison, Wis.); experiment: affinity selection on wells coated with anti-β-gal antibody; input λβ-gal/λV′sac 10^3/10^10
# [4] = molecular target: mouse monoclonal anti-β-gal antibody (Promega, Madison, Wis.); experiment: affinity selection on wells coated with anti-β-gal antibody, collagenase elution, plaques counted on X-gal; input λβ-gal/λV′sac 10^3/10^9
# [5] = molecular target: mouse monoclonal anti-β-gal antibody (Promega, Madison, Wis.); experiment: affinity selection on wells coated with anti-β-gal antibody; input λβ-gal/λV′sac 10^4/10^8
# [6] = molecular target: mouse monoclonal anti-β-gal antibody (Promega, Madison, Wis.); experiment: affinity selection on wells coated with anti-β-gal antibody, collagenase elution, plaques counted on X-gal; input λβ-gal/λV′sac 10^4/10^8
# [7] = molecular target: mouse monoclonal anti-β-gal antibody (Promega, Madison, Wis.); experiment: affinity selection on wells coated with anti-β-gal antibody; input λβ-gal/λV′sac 10^3/10^8
# [8] = molecular target: mouse monoclonal anti-β-gal antibody (Promega, Madison, Wis.); experiment: affinity selection on wells coated with anti-β-gal antibody; input λβ-gal/λV′sac 10^3/10^9
# [9] = molecular target: mouse monoclonal anti-β-gal antibody (Promega, Madison, Wis.); experiment: affinity selection on wells coated with anti-β-gal antibody; input λβ-gal/λV′sac 10^4/10^9
# [10] = molecular target: mouse monoclonal anti-β-gal antibody (Promega, Madison, Wis.); experiment: single round of affinity selection on wells coated with anti-β-gal antibodies
# [11] = molecular target: mouse monoclonal anti-β-gal antibody (Promega, Madison, Wis.); experiment: affinity selection on wells coated with anti-β-gal antibody, collagenase elution, plaques counted on X-gal; input λβ-gal/λV′sac 10^3/10^8
# [12] = molecular target: mouse monoclonal anti-β-gal antibody (Promega, Madison, Wis.); experiment: affinity selection on wells coated with anti-β-gal antibody; input λβ-gal/λV′sac 10^3/10^6
# [13] = molecular target: mouse monoclonal anti-β-gal antibody (Promega, Madison, Wis.); experiment: affinity selection on wells coated with anti-β-gal antibody, collagenase elution, plaques counted on X-gal; input λβ-gal/λV′sac 10^3/10^6
# [14] = molecular target: mouse monoclonal anti-β-gal antibody (Promega, Madison, Wis.); experiment: affinity selection on wells coated with anti-β-gal antibody, collagenase elution, plaques counted on X-gal; input λβ-gal/λV′sac 10^4/10^10
# [15] = molecular target: mouse monoclonal anti-β-gal antibody (Promega, Madison, Wis.); experiment: affinity selection on wells coated with anti-β-gal antibody; input λβ-gal/λV′sac 10^3/10^7
# [16] = molecular target: mouse monoclonal anti-β-gal antibody (Promega, Madison, Wis.); experiment: affinity selection on wells coated with anti-β-gal antibody, collagenase elution, plaques counted on X-gal; input λβ-gal/λV′sac 10^3/10^10
# [17] = molecular target: mouse monoclonal anti-β-gal antibody (Promega, Madison, Wis.); experiment: affinity selection on wells coated with anti-β-gal antibody, collagenase elution, plaques counted on X-gal; input λβ-gal/λV′sac 10^3/10^7
# [18] = molecular target: mouse monoclonal anti-β-gal antibody (Promega, Madison, Wis.); experiment: affinity selection on wells coated with anti-β-gal antibody, collagenase elution, plaques counted on X-gal; input λβ-gal/λV′sac 10^4/10^7
# [19] = molecular target: mouse monoclonal anti-β-gal antibody (Promega, Madison, Wis.); experiment: affinity selection on wells coated with anti-β-gal antibody, collagenase elution, plaques counted on X-gal; input λβ-gal/λV′sac 10^4/10^9
# [20] = molecular target: mucin of bovine submaxillary glands (Sigma, St. Louis, Mo.) (bovine); experiment: affinity selection on wells coated with mucin, 1 mM CaCl2, collagenase elution
Molecule,Enrichment (fold over λV′sac) [1],Enrichment (fold over λV′sac) [2],Enrichment (fold over λV′sac) [3],Output Phage [4],Enrichment (fold over λV′sac) [5],Output Phage [6],Enrichment (fold over λV′sac) [7],Enrichment (fold over λV′sac) [8],Enrichment (fold over λV′sac) [9],average efficiency of recovery (% of the input phage) [10],Output Phage [11],Enrichment (fold over λV′sac) [12],Output Phage [13],Output Phage [14],Enrichment (fold over λV′sac) [15],Output Phage [16],Output Phage [17],Output Phage [18],Output Phage [19],recovery of input phage (% of input phage) [20]
"λβ-gal phage particles grown on MC8 (su+), displaying the β-gal multimer (pV′-β-gal fusion protein assembled with β-gal monomers) on the phage tail (from UniProt P00722 10-1024)",16000,770000,530000,99 plaques,170000,168 plaques,80000,280000,300000,1,8 plaques,> 8000,8 plaques,129 plaques,2000,5 plaques,10 plaques,96 plaques,108 plaques,–
B1,–,–,–,–,–,–,–,–,–,–,–,–,–,–,–,–,–,–,–,0.01
B2,–,–,–,32 plaques,–,25 plaques,–,–,–,–,11 plaques,–,0 plaques,162 plaques,–,106 plaques,5 plaques,6 plaques,39 plaques,–
